These are literature values, as cited in article doi:10.1101/2024.02.22.581550.

The target in this data set is Cys145 (UniProt position 145, PILIPCHRVVC).

Regarding “O6-alkylguanine-DNA alkyltransferase (hAGT; MGMT, methylated-DNA--protein-cysteine methyltransferase) (Homo sapiens)”, the pKa entry is “∼5”.
